The target of experiment [1] is EGFR in living cells (293T cells stimulated with EGF; NIH/3T3 cells transformed by overexpression of the EGFR).
In experiment [2] the target is autophosphorylated EGF-receptor (from lysates of EGF-stimulated A431 cells) (human, UniProt P00533, autophosphorylated on tyrosine (sites not given)). Briefly: binding of GST-PTB to the activated EGFR, normalized to wild type.

The text below walks through data of US6077686, “Shc proteins” (Mount Sinai Hospital Corporation, dated 2000).

Changes are numbered by the printed parent chain. In names and notes the source's numbering stands.

In experiment [1], “isolated ShcC SH2 domain expressed in cells (HA epitope-tagged SH2 domain)” yielded an EGF-induced MAPK activity (Gal4-Elk-1 / Gal4-Luc luciferase in 293T cells) of 50%.

B1: GST fusion protein of the ShcC PTB domain (wild type) (other)
chain: LGPGVTYVVKYLGCIEVLRSMRSLDFSTRTQVTREAISRVCERVPGAKGALKKRKPPSKMLSSILGKSNLQFAGMSISLTISTASLNLRTPDSKQIIANHHMRSISFASGGDPDTTDYVAYVAKDPVNRRACHILECCDGLAQDVIGSIGQAFELRFKQYL
On to B1, for which the “Relative Binding” value in experiment [2] is 1.

B2: GST-ShcC PTB domain mutant A136T/C166R (other)
chain: B1 chain with A108T, C138R
Take B2: the “Relative Binding” value in experiment [2] turned out to be 0.12.

B3: GST-ShcC PTB domain mutant T111I (other)
chain: B1 chain with T83I
Consider B3, for which the “Relative Binding” value in experiment [2] came out at 1.2.

B4: GST-ShcC PTB domain mutant A136T (other)
chain: B1 chain with A108T
As to B4, in experiment [2], the “Relative Binding” value worked out at 0.16.

B5: GST-ShcC PTB domain mutant T118S (other)
chain: B1 chain with T90S
With B5, in experiment [2], the “Relative Binding” value turned out to be 0.81.

B6: GST-ShcC PTB domain mutant S86C (other)
chain: B1 chain with S58C
With B6, the “Relative Binding” value in experiment [2] came to 1.2.

B7: GST-ShcC PTB domain mutant G32R/A136T/C166R (other)
chain: B1 chain with G4R, A108T, C138R
On to B7, for which the “Relative Binding” value in experiment [2] was found to be 0.14.

B8: GST-ShcC PTB domain mutant V36M (other)
chain: B1 chain with V8M
B8: in experiment [2], the “Relative Binding” value amounted to 1.

B9: GST-ShcC PTB domain mutant G32R (other)
chain: B1 chain with G4R
As to B9, the “Relative Binding” value in experiment [2] was 0.93.

B10: GST-ShcC PTB domain mutant G139E/D140N (other)
chain: B1 chain with G111E, D112N
Consider B10, for which the “Relative Binding” value in experiment [2] was 0.073.

B11: GST-ShcC PTB domain mutant G30R/H128Q (other)
chain: B1 chain with G2R, H100Q
With B11, in experiment [2], the “Relative Binding” value worked out at 1.

B12: GST-ShcC PTB domain mutant M130I/S132V (other)
chain: B1 chain with M102I, S104V
For the molecule B12, the “Relative Binding” value in experiment [2] was 1.

B13: GST-ShcC PTB domain mutant E63G (other)
chain: B1 chain with E35G
Consider B13, for which the “Relative Binding” value in experiment [2] came to 0.087.

B14: GST-ShcC PTB domain mutant T58A (other)
chain: B1 chain with T30A
On to B14, for which the “Relative Binding” value in experiment [2] was 1.2.
